In article PMC10308326:

Columns and labels:
[1] = test system: TALE tetM_1298 (14 bp recognition) (engineered TALE (AvrBs3 scaffold in pMAL-c2X, repeats replaced; Xanthomonas?)); test: EMSA; conditions: EMSA: 12 mM Tris, 60 mM KCl, 2 mM DTT, 0.1 mg/mL BSA, 30% glycerol, 5 mM MgCl2, 0.2 mM EDTA, RT 1 h then 4 °C 30 min, TALE 0.03-200 nM; GO assay: TALE storage …
[2] = test system: TALE tetM_611 (16 bp recognition) (engineered TALE (AvrBs3 scaffold in pMAL-c2X, repeats replaced; Xanthomonas?)); test: EMSA; conditions: EMSA: 12 mM Tris, 60 mM KCl, 2 mM DTT, 0.1 mg/mL BSA, 30% glycerol, 5 mM MgCl2, 0.2 mM EDTA, RT 1 h then 4 °C 30 min, TALE 0.03-200 nM; GO assay: TALE storage …

Row | Sequence | Kd [1] | Kd [2]
1 | GCGCCTTTCTGGGCTTCGCG / TTTTTTTTTTTTTTTCGCGAAGCCCAGAAAGGCGC [tetM_1298 EMSA oligo] | 1.2 nM | 
2 | GCGTGTTCTCTGTTCCCTCGCG / TTTTTTTTTTTTTTTCGCGAGGGAACAGAGAACACGC [tetM_611 EMSA oligo] |  | 4.6 nM
